Target: human c-Kit (wild type) on the cell surface of LAD2 cells (human, UniProt P10721 26-976)
Test: cell-based or functional assay

Sequence of human c-Kit (wild type) on the cell surface of LAD2 cells (P10721 26-976): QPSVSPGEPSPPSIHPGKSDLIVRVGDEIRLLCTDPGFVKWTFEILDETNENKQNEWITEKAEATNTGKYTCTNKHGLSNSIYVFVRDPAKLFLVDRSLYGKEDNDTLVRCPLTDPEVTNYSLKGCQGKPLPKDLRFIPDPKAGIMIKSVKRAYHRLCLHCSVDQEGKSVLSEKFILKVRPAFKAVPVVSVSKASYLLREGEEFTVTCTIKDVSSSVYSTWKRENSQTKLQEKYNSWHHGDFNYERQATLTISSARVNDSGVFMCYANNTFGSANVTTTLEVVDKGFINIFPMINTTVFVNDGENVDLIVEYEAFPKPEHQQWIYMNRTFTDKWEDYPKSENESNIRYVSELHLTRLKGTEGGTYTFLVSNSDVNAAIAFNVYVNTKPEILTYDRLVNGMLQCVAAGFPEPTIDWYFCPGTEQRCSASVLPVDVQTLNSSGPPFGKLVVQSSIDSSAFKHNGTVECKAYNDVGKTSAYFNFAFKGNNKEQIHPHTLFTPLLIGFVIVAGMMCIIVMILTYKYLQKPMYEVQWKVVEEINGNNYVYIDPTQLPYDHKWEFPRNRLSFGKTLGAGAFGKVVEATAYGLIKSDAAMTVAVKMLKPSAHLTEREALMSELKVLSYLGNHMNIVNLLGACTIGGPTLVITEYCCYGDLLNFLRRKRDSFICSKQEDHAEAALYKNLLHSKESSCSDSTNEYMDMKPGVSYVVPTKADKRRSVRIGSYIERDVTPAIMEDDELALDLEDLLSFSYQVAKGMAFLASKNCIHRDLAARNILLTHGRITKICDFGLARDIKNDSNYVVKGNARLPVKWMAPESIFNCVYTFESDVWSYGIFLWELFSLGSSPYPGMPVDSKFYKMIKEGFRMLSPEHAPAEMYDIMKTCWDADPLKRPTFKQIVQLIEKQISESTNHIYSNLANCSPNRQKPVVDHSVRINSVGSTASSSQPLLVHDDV

B1: 2G4 antibody (antibody, human IgG1, kappa, V domains shown)
VH: QVQLVESGGGVVQPGRSLRLSCAASGFTFSRYGMHWVRQAPGKGLEWVAVIWYDGTNKDYTDSVRGRFTISRDNSKNTLYLQMNSLRAEDTAVYYCAREDWAEAFDMWGQGTTVTVSS
VL: not shown
  IC50 of degranulation (β-hexosaminidase release) increased by SCF and streptavidin in IgE-sensitized LAD2 cells: 0.00636 µg/mL
  half-maximal inhibitory concentration (IC50) of SCF-mediated proliferation of LAD2 cells: 0.058 µg/mL
